Literature values in PMC9927262.
Read-outs that look alike come from different tables or passages of the source.

Columns and labels:
[1] = target: Spike RBD RBD (SARS-CoV-2) (UniProt P0DTC2)
[2] = target: Spike RBD RBD (SARS-CoV-2) (UniProt P0DTC2); remark: listed apart in the source

## bamlanivimab
[1]
  Kd: 3.5 nM

## etesevimab
[2]
  Kd: 4.1 nM
